Experimental data: patent US6867011B1, “Synthetic bioepitope compounds which can be used as standards in the biological assays of Troponin I” (Bio-Rad Pasteur, priority 1996, dated 2005)

How the values were obtained:
[1] = Tests of stability of compound 10 solutions stored at +4° C., assayed periodically with the troponin I kit; format: physicochemical; details: buffer solutions stored at +4° C.
Protocol: A compound according to the invention (compound 10) was diluted in water (C=2 mg/ml). From this “stock” solution, four “working” solutions S1, S2, S3 and S4 are obtained.
To carry out the various dilutions, a 0.1 M sodium succinate buffer solution (pH=6) containing Kathon (0.2%), Re gilait (0.05%) and 2 mM EDTA was used for solutions S1 (C=0.5 ng/ml) and S2 (C=1 ng/ml).
Solutions S3 (C=0.5 ng/ml) and S4 (C=1 ng/ml) were obtained by diluting the “stock” solution with phosphate buffer (KH2PO4/K2HPO4 pH=7.5) containing Kathon (0.2%), Régilait (0.05%) and 2 mM EDTA.
Solutions S1, S2, S3 and S4 were assayed, according to the protocol described in Example 2, on D0 (day of preparation of the solutions). The values obtained served as reference for monitoring stability.
Next, solutions S1, S2, S3 and S4 were stored at +4° C. and assayed periodically. During each series of assays, three “control solutions” were used. They are the freeze-dried troponin I control sera distributed in the assay measuring range. […] During each stability test, it was checked that each of the controls tested was obtained at its target concentration. This therefore made it possible to compare the concentrations obtained for the peptides during the various tests. […]

[2] = format: physicochemical
Protocol: This stability study was validated with the aid of compound 6 stored at -20° C. and used as reference. It was checked beforehand that compound 6 is stable when stored at -20° C. for at least 18 months.

| Substance | Stability of the solutions [1] | Duration stable when stored at −20° C. [2] |
| --- | --- | --- |
| Ac-Asn Tyr Arg Ala Tyr Ala Thr Glu Pro His Ala Lys Lys Lys Ser Lys Gln Lys Met Gln Ala Met Met Gln Ala Leu Leu Gly Ala Arg Ala Lys Glu-NH2 (Ac-NYRAYATEPHAKKKSKQKMQAMMQALLGARAKE-NH2) [Compound 10, Ia with Ξ = Ac-NYRAYA-, Z = -AKKKSK-(QKMQ)1-AMMQA-, Ψ = -AKE-NH2] | excellent stability |  |
| Ac-Gly Asn Tyr Arg Ala Tyr Ala Thr Glu Pro His Ala Lys Lys -NH-(CH2)5-CO-Ala Met Met Gln Ala Leu Leu Gly Ala Arg Ala Lys Glu-NH2 [Compound 6] |  | at least 18 months |
